The source of these data is patent publication US20250346679A1 (INVOX PHARMA, published 2025).

Residue numbers refer to the chain shown, from its start. In names and notes the source's numbering stands.

First the molecules themselves.
B1: FS22m-063 in HeID1.3 mock mAb^2 format (bispecific antibody)
heavy: QVQLQESGPGLVRPSQTLSLTCTVSGSTFSGYGVNWVRQPPGRGLEWIGMIWGDGNTDYNSALKSRVTMLVDTSKNQFSLRLSSVTAADTAVYYCARERDYRLDYWGQGSLVTVSSASTKGPSVFPLAPSSKSTSGGTAALGCLVKDYFPEPVTVSWNSGALTSGVHTFPAVLQSSGLYSLSSVVTVPSSSLGTQTYICNVNHKPSNTKVDKKVEPKSCDKTHTCPPCPAPELLGGPSVFLFPPKPKDTLMISRTPEVTCVVVDVSHEDPEVKFNWYVDGVEVHNAKTKPREEQYNSTYRVVSVLTVLHQDWLNGKEYKCKVSNKALPAPIEKTISKAKGQPREPQVYTLPPSRDEPYWSYVSLTCLVKGFYPSDIAVEWESNGQPENNYKTTPPVLDSDGSFFLYSKLTVMNYRWELGNVFSCSVMHEALHNHYTQKSLSLSPG
light: DIQMTQSPASLSASVGETVTITCRASGNIHNYLAWYQQKQGKSPQLLVYNAKTLADGVPSRFSGSGSGTQYSLKINSLQPEDFGSYYCQHFWSTPRTFGGGTKLEIKRTVAAPSVFIFPPSDEQLKSGTASVVCLLNNFYPREAKVQWKVDNALQSGNSQESVTEQDSKDSTYSLSSTLTLSKADYEKHKVYACEVTHQGLSSPVTKSFNRGEC
notes: anti-mouse CD137 Fcab
B2: FS22-053-017 in HeID1.3 mock mAb^2 format (bispecific antibody)
heavy: QVQLQESGPGLVRPSQTLSLTCTVSGSTFSGYGVNWVRQPPGRGLEWIGMIWGDGNTDYNSALKSRVTMLVDTSKNQFSLRLSSVTAADTAVYYCARERDYRLDYWGQGSLVTVSSASTKGPSVFPLAPSSKSTSGGTAALGCLVKDYFPEPVTVSWNSGALTSGVHTFPAVLQSSGLYSLSSVVTVPSSSLGTQTYICNVNHKPSNTKVDKKVEPKSCDKTHTCPPCPAPELLGGPSVFLFPPKPKDTLMISRTPEVTCVVVDVSHEDPEVKFNWYVDGVEVHNAKTKPREEQYNSTYRVVSVLTVLHQDWLNGKEYKCKVSNKALPAPIEKTISKAKGQPREPQVYTLPPSRDELNPPYLFSNQVSLTCLVKGFYPSDIAVEWESNGQPENNYKTTPPVLDSDGSFFLYSKLTVYHWRWLEGNVFSCSVMHEALHNHYTQKSLSLSPG
light: B1 light
notes: FS22-053-014 with D98E (IMGT, CH3); range 1-339 derived by counting; also called FS22-053-17
B3: FS22-053-014/HeID1.3 (bispecific antibody, human IgG1, kappa)
heavy: B2 heavy with E423D
light: B1 light
notes: mock mAb^2; also called FS22-053-014 (mock mAb^2 format); FS22-053-14
B4: mCD137-mFc-Avi (Fc fusion)
chain: VQNSCDNCQPGTFCRKYNPVCKSCPPSTFSSIGGQPNCNICRVCAGYFRFKKFCSSTHNAECECIEGFHCLGPQCTRCEKDCRPGQELTKQGCKTCSLGTFNDQNGTGVCRPWTNCSLDGRSVLKTGTTEKDVVCGPPVVSFSPSTTISVTPEGGPGGHSLQVL
notes: also called mouse CD137-mFc-Avi; mouse dimeric CD137; not shown: mouse IgG2a Fc domain (mIgG2a Fc)

The target of assay [1] is T1, mouse CD137, cell-surface (mouse, UniProt P20334 24-256). The assay can be described thus: cell-based or functional assay.
Assay [2] deals with T2, mouse GITR (R&D Systems, biotinylated) (mouse, UniProt O35714 22-153, limits assumed, biotinylated).
T2 sequence (looked up): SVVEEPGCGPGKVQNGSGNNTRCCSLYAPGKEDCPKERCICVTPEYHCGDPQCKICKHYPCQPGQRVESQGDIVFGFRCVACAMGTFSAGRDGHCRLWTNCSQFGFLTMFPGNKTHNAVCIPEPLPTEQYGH
As to the kind of experiment: BLI (Octet), biotinylated receptor on streptavidin sensors. The protocol:
(§1) The specificity of the anti-mouse CD137 Fcabs for mouse CD137 was tested in HeID1.3 “mock” mAb² format and measured by BLI in an Octet QKe system by testing for binding of the Fcabs to other mouse TNFRSF receptors (CD40, OX40, GITR). […] Anti-mouse CD137 Fcabs in mock mAb² format were diluted 1:1 in kinetic buffer (PALL 18-1092) to a final concentration of at least 1 μM. Antigen-coated sensors were dipped into the mAb² solutions for 180 seconds followed by 180 seconds in 1×kinetic buffer. Antibodies for each of the TNFRSF receptors were used as positive controls.

Assay [3] deals with mouse CD40 (R&D Systems, biotinylated) (mouse, UniProt P27512 24-193, limits assumed, biotinylated). Described as above. How it is done: as §1
mouse CD40 (R&D Systems, biotinylated), sequence (P27512 24-193 limits assumed): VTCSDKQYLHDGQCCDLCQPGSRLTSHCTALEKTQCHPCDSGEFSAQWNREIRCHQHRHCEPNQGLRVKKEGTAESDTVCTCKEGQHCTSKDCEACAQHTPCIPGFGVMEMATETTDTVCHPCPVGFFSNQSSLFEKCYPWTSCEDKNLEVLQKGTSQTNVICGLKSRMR
Assay [4] deals with T1, mouse CD137, cell-surface. As to the kind of experiment: cell-based or functional assay. This is another data set of the same source.
The target in assay [5] is B4. As to the kind of experiment: SPR (Biacore T200). For orientation: Surface plasmon resonance follows binding to a sensor surface in real time, without labels.
Assay [6] has as its target T3, cCD137-mFc-Avi (cynomolgus; mouse).
T3 construct: also called cynomolgus CD137-mFc-Avi; Cyno CD137-mFc-Avi; not shown: mouse IgG2a Fc domain (mIgG2a Fc)
T3 chain: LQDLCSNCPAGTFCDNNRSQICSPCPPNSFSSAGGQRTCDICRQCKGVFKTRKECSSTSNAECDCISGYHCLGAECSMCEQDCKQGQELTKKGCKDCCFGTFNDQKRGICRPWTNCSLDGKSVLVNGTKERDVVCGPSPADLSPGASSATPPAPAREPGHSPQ
As to the kind of experiment: SPR, mAb^2 captured by anti-human Fab, antigen in flow, 1:1 Langmuir fit. The protocol: (§2) An anti-human Fab capture antibody was immobilised on all four flow cells of a CM5 series S chip (GE Healthcare #BR-1005-30) to an average surface density of 6000 RU following the manufacturer's recommendations (GE Healthcare, human Fab capture Kit, #28958325). […] Each mAb² was captured to approximately 150 RU by injecting a 3 μg/ml solution of mAb² diluted in HBS-EP+ buffer (GE Healthcare #BR1006-69) for 60 seconds at 30 μl/min. Then different concentrations of human, cyno or mouse CD137 antigen (unbiotinylated human, cyno or mouse CD137-mFc-Avi or human CD137-Avi-His) in HBS-EP+ buffer were flowed over the chip for 3 min at 60 μl/min and then allowed to dissociate for 10 minutes. After each antigen concentration the chip was regenerated by infecting 10 mM glycine pH 2.1 at a flow rate of 30 μl/min for 30 seconds. Buffer HBS-EP+ was injected before the highest concentration of antigen and after the lowest concentration of antigen for reference subtraction, and one of the concentrations at random was repeated twice. The binding kinetics were fit with a 1:1 Langmuir model to generate equilibrium binding constants (KD) for each sample. Data analysis was performed with BiaEvaluation software version 3.2.

Assay [7] concerns the target T4, hCD137-mFc-Avi (human; mouse, UniProt Q07011 24-186, biotin on the Avi sequence where the biotinylated form was used).
T4 construct: also called human CD137-mFc-Avi; dimeric human CD137; not shown: mouse IgG2a Fc domain (mIgG2a Fc)
The assay is described as above. The protocol:
as §2

The target in assay [8] is B4. The description is as above. The protocol:
as §2

The target in assay [9] is T5, hCD137-Avi-His (human, UniProt Q07011 24-186).
T5 construct: also called human CD137-Avi-His; monomeric human CD137
T5 sequence (Q07011 24-186): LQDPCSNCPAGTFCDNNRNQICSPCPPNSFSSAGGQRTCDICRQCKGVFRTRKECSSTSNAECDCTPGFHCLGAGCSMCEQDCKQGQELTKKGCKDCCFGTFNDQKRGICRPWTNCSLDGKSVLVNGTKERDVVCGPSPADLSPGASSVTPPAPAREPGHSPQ
Described as above. How it is done:
as §2

The target of assay [10] is human CD40 (human, UniProt P25942 21-193, limits assumed). The assay can be described thus: SPR, receptor amine-coupled to CM5 (~1000 RU). The protocol: (§3) The specificity of the anti-human CD137 Fcabs for human CD137 compared to other related TNFSFR family members was tested. 8 of the Fcabs were tested in mock mAb² (HeID1.3) format and measured by SPR in a Biacore T200 (GE Healthcare) by testing for binding to other human TNFRSF receptors: CD40, OX40 and GITR. Amine coupling (amine coupling kit, GE Healthcare, BR-1000-50) was used to coat human CD40, GITR and OX40 to approximately 1000 RU in Biacore CM5 chips (GE Healthcare, cat no 29149603). […] The chip was regenerated by injection of 10 mM glycine pH 2.5 for 12 s at 30 μl/min. Antibodies specific to the different TNFRSF members were used as positive controls to verify Biacore chip coating. Data was double reference subtracted and analysed using BIAevaluation 3.2 software.
human CD40, sequence (P25942 21-193 limits assumed): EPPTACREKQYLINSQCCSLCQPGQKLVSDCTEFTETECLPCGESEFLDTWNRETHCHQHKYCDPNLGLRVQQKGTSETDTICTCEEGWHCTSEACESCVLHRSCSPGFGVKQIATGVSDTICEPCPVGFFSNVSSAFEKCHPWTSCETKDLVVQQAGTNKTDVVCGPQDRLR

Assay [11] concerns the target T6, human OX40 (human, UniProt P43489 29-216).
T6 sequence (looked up): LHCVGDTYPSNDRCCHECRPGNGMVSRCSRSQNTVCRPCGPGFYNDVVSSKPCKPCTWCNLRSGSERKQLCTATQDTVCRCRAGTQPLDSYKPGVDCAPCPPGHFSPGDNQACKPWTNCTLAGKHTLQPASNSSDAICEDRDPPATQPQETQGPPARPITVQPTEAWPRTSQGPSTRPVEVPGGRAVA
As to the kind of experiment: SPR, receptor amine-coupled to CM5 (~1000 RU). The protocol: as §3

The target in assay [12] is T7, human GITR (human, UniProt Q9Y5U5 26-161, limits assumed).
T7 sequence (looked up): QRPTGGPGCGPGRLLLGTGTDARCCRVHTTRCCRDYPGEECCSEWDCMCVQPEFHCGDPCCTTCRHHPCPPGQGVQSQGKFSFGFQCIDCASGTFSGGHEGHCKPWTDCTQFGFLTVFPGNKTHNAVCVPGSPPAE
As to the kind of experiment: SPR, receptor amine-coupled to CM5 (~1000 RU). How it is done: as §3

For assay [13], the target named is T8, mouse CD137 ligand on DO11.10 cells (mouse, UniProt P41274 1-309).
T8 construct: whole, on cells
T8 sequence (looked up): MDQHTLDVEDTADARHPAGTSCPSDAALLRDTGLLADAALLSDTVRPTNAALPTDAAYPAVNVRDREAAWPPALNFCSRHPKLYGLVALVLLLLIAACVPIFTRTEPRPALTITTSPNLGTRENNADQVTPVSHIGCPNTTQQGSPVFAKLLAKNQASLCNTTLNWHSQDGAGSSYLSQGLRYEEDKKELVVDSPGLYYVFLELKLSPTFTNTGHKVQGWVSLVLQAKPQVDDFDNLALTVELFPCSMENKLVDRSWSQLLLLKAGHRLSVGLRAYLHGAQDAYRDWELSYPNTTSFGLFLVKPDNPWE
As to the kind of experiment: flow cytometry, anti mouse Fc detection. How it is done:
In more detail, materials from the same production lot were mixed together and analysed for stability and purity by size-exclusion high-performance liquid chromatography (SE-HPLC), SDS polyacrylamide gel electrophoresis (SDS-PAGE), and size-exclusion chromatography with multi-angle light scattering (SEC-MALS). […] Cells were incubated with the CD137 antigens for 1 hour, and then a fluorescently-labelled anti mouse Fc fragment antibody was used to detect cell binding.

T4 sequence (Q07011 24-186): as the sequence (Q07011 24-186) above

For B1, in assay [1], the “EC50 upon Protein L crosslinking, NF-κB luciferase assay (HEK.FRT.luc.mCD137)” value was determined as 1.44 nM and the “fold-change in activity upon crosslinking, NF-κB luciferase assay (HEK.FRT.luc.mCD137)” value is 27 fold. The binding result in [2] was “no binding (tested: at least 1 µM)”. For the same molecule, the binding result in assay [3] was “no binding (tested: at least 1 µM)”. In addition, in [4], the “+XL EC50 (nM), mouse CD137 DO11.10 T cell activation assay” value (shortened to “+XL EC50 (nM)”) was 0.39 nM and the “+XL Emax (IL-2 pg/ml), mouse CD137 DO11.10 T cell activation assay” value (“+XL Emax (IL-2 pg/ml)” for short) is 24200 pg/mL.
Regarding B2, the “fold decrease in binding strength against FS22-053-014” value in assay [5] stood at 2 fold. In assay [4], the “+XL EC50 (nM)” value came to 16.7 nM and the “+XL Emax (IL-2 pg/ml)” value was determined as 41000 pg/mL.
The term Kd denotes the concentration at which binding is half-saturated. Read a low Kd as a tighter complex. On to B3, for which the dissociation constant (Kd) in assay [6] stood at 0.9 nM; in [7], 3.2 nM; in assay [8] it was 24 nM. Also, the “Human monomeric CD137 KD fold difference relative to human dimeric KD” value in [9] is 100 fold. For the same molecule, the binding result in [10], in assay [11] and in assay [12] was “no binding (tested: 1 µM)” in each case. In addition, the “+XL EC50 (nM)” value in [4] is 2.04 nM. Moreover, in assay [4], the “+XL Emax (IL-2 pg/ml)” value came out at 28100 pg/mL.
For the molecule B4, in assay [13], the binding result was “binds”.
